From US9340769B2 (priority 2008, dated 2016) come the findings set out here.

One series concerns stratum corneum barrier. The class given is in vivo, ICR mice.
Series [1] concerns P. acnes. Put plainly: Effect of desipramine on P. acnes-induced inflammation in vivo (ear thickness). On the set-up: species or system ICR mice. The settings on record: 20 mg/kg i.p. 30 min before challenge; 24 hr. As to the method:
(A) Amount of soluble ASMase in mouse ear increased 24 hr after bacteria challenge. Ears of ICR mice were intradermally injected with of P. acnes in PBS (1×10^7 CFU/20 μl; left ear) or PBS (20 μl; right ear), and excised after 24 hr. Ear tissue was obtained with a 8 mm biopsy and homogenized in PBS. The supernatant (1 ug of total protein) was subjected to Western blotting. ASMase (upper panels) and GAPDH (lower panels) were detected with goat anti-ASMase IgG followed by anti-GAPDH IgG (left panels). Normal goat or mouse IgG was used as a negative control for the detection (right panels). (B) P. acnes challenge into mouse ear attracted CD11b+ macrophages which highly expressed ASMase. Frozen sections of mouse ear obtained 24 after bacteria challenge were stained with biotinylated anti-mouse CD11b IgG, a conventional macrophage marker, and TRITC-streptavidin conjugate, followed by Goat anti-ASMase IgG and anti-goat IgG-TRITC conjugate. The nuclei were stained with DAPI (blue). Bar=200 μm. (C) Transmission electron microscopy (10,000× magnification) was used to visualize colonized P. acnes and ruptured cell membrane in mouse ears injected with P. acnes or PBS. PA, P. acnes; CM, cell membrane; NC, nucleus. Bar=1 μm. (D) Systemic pre-treatment of ICR mice with selective ASMase inhibitor relieved P. acnes-induced inflammation. […]

Series [2] has as its system HaCaT cells co-cultured with P. acnes. Put plainly: P. acnes-mediated cell death: neutralization assay / ASMase inhibitor, HaCaT. To be noted: desipramine 10 μM, 14 hr; 43.4% with PBS vehicle.
Another series deals with sialidase. Put plainly: Immunogenicity of sialidase vaccines (Western blot, antigen microarray). The settings on record: recombinant protein with Freund (in)complete adjuvants; three weeks after immunization.
The subject of series [3] is P. acnes. Put plainly: P. acnes-induced ear thickness/redness in immunized mice (subcutaneous ear challenge).
In another series the test system is human SZ95 sebocytes. Put plainly: Susceptibility of sialidase-treated sebocytes to P. acnes (cell death by trypan blue, adherence by CFU). To be noted: pre-treatment 10 μg/ml for 2 h; GFP no effect.
For series [4], the system named is sialic acids on the surface of human SZ95 sebocytes. Put plainly: Sialidase enzyme activity: removal of surface sialic acids from sebocytes (MAA lectin I / streptavidin-FITC flow cytometry). The settings on record: compared among three cloned P. acnes sialidases.

With `CCCCCCCCCCCCCCO[C@@H]1O[C@H](CO)[C@@H](O[C@H]2O[C@H](CO)[C@@H](O)[C@H](O)[C@H]2O)[C@H](O)[C@H]1O` [TDM, tetradecyl-β-D-maltoside], the “effect on stratum corneum barrier” value in the series on stratum corneum barrier (0.125% in sterile water, 15 min) is on record as “slightly disrupts”. The “effect on epicutaneous immunization of E. coli based-tetanus toxin C fragment vaccine” value with stratum corneum barrier (mouse, in vivo) was “greatly enhances”.
For the molecule `CNCCCN1c2ccccc2CCc2ccccc21` [desipramine], the “P. acnes-induced ear swelling” value in the series with P. acnes [1] was “significantly relieved”. The “P. acnes-induced cell death, reduced by (HaCaT)” value in series [2] is listed as 21.9%.

B1: sialidase: recombinant P. acnes cell wall-anchored sialidase (gi|50843035) 6×NH fusion protein; enzyme and, with Freund adjuvants, vaccine (protein)
chain: MTLTTKLSALAIAGIMAVIGAPMVTQSAMASGRAPAPDAATTQPKLVTGDITSTDQSGTHLFFGKNIVRNAKGAIMKVDRTWPAAVPAPLPDVRADSSTRMLLGPVVDLAVNEHPAGVFYRIPALATASNGDLLASYDLRPGSAADAPNPNSIVQRRSRDNGRTRGPQTVIHAGTLGRRKVGYSDPSYLVDPATGHILNFHVKSYDRGFATSEVGTDPDDRHVLHAEVSTSTDNGHTWTYRDITREITPDPTTRTRFVASGQGIALLHGPHAGGLIAQMTVRNSVGQQAQSIYSDDHGITWHAGNPVGRMMDENKVVELSDGTLMLNSRDAARSGRRKVAYSHDGGLTWGPVKLVDDLIDPTNNAQIIRAYPNARAGSAKARILLFTNARNATERVNGTLSVSCDDGRTWVSHQTYMPGEVGYTTAAVQSDGALGVLWERDGIRYSTIPMGWLNSVCPVAPSGRPTSGEPTSGTSLPLTATPSGSLHGGASSRPTSLPHTGD
modifications: left off: small tags and cut ends
With B1, the “anti-sialidase antibody in serum (Western blot)” value with sialidase is “strong band”. Besides, in the series with P. acnes [3] (recombinant sialidase with Freund (in)complete adjuvants vs GFP-immunized, P. acnes 10^7 CFU s.c.), the “elevation of ear thickness, reduced by” value is recorded as “more than 50%”. The “recovery of ear redness, days after P. acnes challenge” value with P. acnes [3] (sialidase-immunized, GFP-immunized 7 days) was 3 days. For the same molecule, in the series on human SZ95 sebocytes, the “adherence of P. acnes into sebocytes” value is recorded as “considerably increased”. The “enzyme activity in removing the sialic acids from the surface of human SZ95 sebocytes” value in series [4] is “strongest enzyme activity”.
